In patent US20200352996A1:

Biological target: Tissue factor (TF) on human TNBC line MDA-MB-231 cells (human) (UniProt P13726)
Test: cell-based or functional assay

Sequence of UniProt P13726 (P13726 33-295): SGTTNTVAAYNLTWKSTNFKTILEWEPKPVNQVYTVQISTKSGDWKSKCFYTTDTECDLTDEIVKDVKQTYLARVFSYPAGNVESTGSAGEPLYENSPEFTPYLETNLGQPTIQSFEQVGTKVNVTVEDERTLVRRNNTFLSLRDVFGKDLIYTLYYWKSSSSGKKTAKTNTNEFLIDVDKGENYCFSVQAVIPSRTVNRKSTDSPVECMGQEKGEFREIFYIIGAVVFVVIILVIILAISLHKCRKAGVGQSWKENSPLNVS

“TF-targeting CAR1 monomer (hfVIIL-CD28-4-1BB-CD3zeta), expressed on NK92MI/fCD16 cells (from UniProt P10747 153-220; Q07011 214-255; P20963 52-164)” gave a cytotoxicity to TNBC cells (CytoTox Homogenous Assay, E:T ratio of 10:1) of 77%.
